These results are taken from paper PMC12350170 (2025).

Experiment [1] addresses T1, MBP-PHAX103–196 (wild type) (human, UniProt Q9H814 103-196).
T1 chain: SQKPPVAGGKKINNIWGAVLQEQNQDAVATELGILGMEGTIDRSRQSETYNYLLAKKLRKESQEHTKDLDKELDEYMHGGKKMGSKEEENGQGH
The experiment in a line: ITC; CBC bound to m7GpppG.

In experiment [2] the target is MBP-PHAX103–196 R147E, Y152E, Y154E (human, UniProt Q9H814 103-196, R147E | Y152E | Y154E). The experiment in a line: ITC; CBC bound to m7GpppG.
In experiment [3] the target is T1, MBP-PHAX103–196 (wild type). The experiment in a line: ITC. (In general: Isothermal titration calorimetry measures the heat released or taken up as one component is titrated into another.)

B1: Human nuclear cap-binding complex (CBC): CBP80ΔNLS with CBP20 (complex)
chain 1: KTSDANETEDHLESLICKVGEKSACSLESNLEGLAGVLEADLPNYKSKILRLLCTVARLLPEKLTIYTTLVGLLNARNYNFGGEFVEAMIRQLKESLKANNYNEAVYLVRFLSDLVNCHVIAAPSMVAMFENFVSVTQEEDVPQVRRDWYVYAFLSSLPWVGKELYEKKDAEMDRIFANTESYLKRRQKTHVPMLQVWTADKPHPQEEYLDCLWAQIQKLKKDRWQERHILRPYLAFDSILCEALQHNLPPFTPPPHTEDSVYPMPRVIFRMFDYTDDPEGPVMPGSHSVERFVIEENLHCIIKSHWKERKTCAAQLVSYPGKNKIPLNYHIVEVIFAELFQLPAPPHIDVMYTTLLIELCKLQPGSLPQVLAQATEMLYMRLDTMNTTCVDRFINWFSHHLSNFQFRWSWEDWSDCLSQDPESPKPKFVREVLEKCMRLSYHQRILDIVPPTFSALCPANPTCIYKYGDESSNSLPGHSVALCLAVAFKSKATNDEIFSILKDVPNPNQDDDDDEGFSFNPLKIEVFVQTLLHLAAKSFSHSFSALAKFHEVFKTLAESDEGKLHVLRVMFEVWRNHPQMIAVLVDKMIRTQIVDCAAVANWIFSSELSRDFTRLFVWEILHSTIRKMNKHVLKIQKELEEAKEKLARQHKRRSDDDDRSSDRKDGVLEEQIERLQEKVESAQSEQKNLFLVIFQRFIMILTEHLVRCETDGTSVLTPWYKNCIERLQQIFLQHHQIIQQYMVTLENLLFTAELDPHILAVFQQFCALQA
chain 2: MSGGLLKALRSDSYVELSQYRDQHFRGDNEEQEKLLKKSCTLYVGNLSFYTTEEQIYELFSKSGDIKKIIMGLDKMKKTACGFCFVEYYSRADAENAMRYINGTRLDDRIIRTDWDAGFKEGRQYGRGRSGGQVRDEYRQDYDAGRGGYGKLAQNQ
The term Kd denotes the free concentration of one partner at which half of the binding sites on the other are occupied at equilibrium, for simple one-to-one binding. Lower therefore signals higher affinity. With B1, the Kd amounted to 1450 nM in experiment [1], 1970 nM in experiment [2] and 1860 nM in experiment [3].
